Measured values: the supplement of paper PMC9876800

Test system: peptide library, one residue held at a place counted from the S/T acceptor
Experiment: relative phosphorylation of the sub-library (ratio to the mean residue at this position); higher = residue favoured
Settings: human
In short: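 Purified recombinant kinases were reacted in 384-well plates with biotinylated degenerate peptide sub-libraries, each having one residue fixed at one position around a central Ser/Thr. The reaction mix contained 50 μM peptide plus 50 μM ATP spiked with γ-32P-ATP and ran for 90 min under kinase-specific conditions. Relative sub-library phosphorylation, taken from densitometry of phosphorimaged streptavidin membrane spots, is a ratio to the mean residue at that position.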

CSNK1G2, construct: aa43-353, sequence (P78368 43-353, looked up): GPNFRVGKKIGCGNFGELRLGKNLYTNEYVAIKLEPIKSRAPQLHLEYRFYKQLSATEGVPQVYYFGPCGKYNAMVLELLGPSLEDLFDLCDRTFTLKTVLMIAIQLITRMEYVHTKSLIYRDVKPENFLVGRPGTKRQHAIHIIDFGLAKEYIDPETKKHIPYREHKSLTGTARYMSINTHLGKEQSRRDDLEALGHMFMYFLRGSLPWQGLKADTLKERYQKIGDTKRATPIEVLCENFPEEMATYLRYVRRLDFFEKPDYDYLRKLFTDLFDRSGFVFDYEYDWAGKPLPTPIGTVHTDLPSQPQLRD
CDK1, construct: Full length, sequence (P06493 whole entry, looked up): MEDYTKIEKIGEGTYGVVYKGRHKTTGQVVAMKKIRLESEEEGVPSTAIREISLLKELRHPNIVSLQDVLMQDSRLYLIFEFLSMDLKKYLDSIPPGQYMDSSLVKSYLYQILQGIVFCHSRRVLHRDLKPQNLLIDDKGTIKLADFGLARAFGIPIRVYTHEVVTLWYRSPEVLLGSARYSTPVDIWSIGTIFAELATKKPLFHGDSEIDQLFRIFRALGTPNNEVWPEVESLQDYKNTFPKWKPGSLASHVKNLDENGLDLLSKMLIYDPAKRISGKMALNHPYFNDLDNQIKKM
NEK8, construct: aa1-322, sequence (Q86SG6 1-322, looked up): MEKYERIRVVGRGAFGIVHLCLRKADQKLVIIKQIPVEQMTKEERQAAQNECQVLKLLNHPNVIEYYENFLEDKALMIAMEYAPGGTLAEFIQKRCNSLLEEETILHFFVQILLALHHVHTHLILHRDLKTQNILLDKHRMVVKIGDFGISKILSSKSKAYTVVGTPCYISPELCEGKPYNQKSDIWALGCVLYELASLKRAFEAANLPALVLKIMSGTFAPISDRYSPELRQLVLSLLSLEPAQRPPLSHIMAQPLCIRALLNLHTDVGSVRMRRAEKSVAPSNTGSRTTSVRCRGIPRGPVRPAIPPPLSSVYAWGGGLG

CDK1, construct: Full length (from UniProt P06493)
relative phosphorylation
Settings | at +1 | at +2 | at +3 | at +4 | at -1 | at -2 | at -3 | at -4 | at -5
A fixed | 0.334 | 1.04 | 0.598 | 0.854 | 0.927 | 1 | 0.841 | 0.996 | 1.04
D fixed | 0.205 | 0.814 | 0.505 | 0.941 | 1.21 | 1.03 | 1.26 | 1.56 | 1.55
E fixed | 0.231 | 0.724 | 0.425 | 0.786 | 0.927 | 0.898 | 1.25 | 1.38 | 1.36
F fixed | 0.187 | 0.68 | 0.396 | 0.78 | 0.639 | 0.853 | 0.825 | 0.825 | 0.882
G fixed | 0.717 | 1.13 | 0.852 | 1.1 | 1.43 | 1.29 | 1.31 | 1.14 | 1.4
H fixed | 0.244 | 1.18 | 0.907 | 1.23 | 0.744 | 0.87 | 1.01 | 0.908 | 0.893
I fixed | 0.21 | 0.694 | 0.346 | 0.758 | 0.352 | 0.669 | 0.663 | 0.654 | 0.751
K fixed | 0.331 | 1.86 | 5.37 | 1.83 | 1.65 | 0.597 | 1.01 | 0.973 | 1.11
L fixed | 0.228 | 0.752 | 0.403 | 0.792 | 0.62 | 0.89 | 0.743 | 0.69 | 0.799
M fixed | 0.24 | 0.839 | 0.423 | 0.913 | 0.85 | 1.04 | 0.761 | 0.806 | 0.759
N fixed | 0.299 | 1.19 | 0.838 | 1.12 | 1.27 | 0.803 | 1.11 | 1.01 | 0.944
P fixed | 12.4 | 1.04 | 0.999 | 1.08 | 1.61 | 3.11 | 1.84 | 1.49 | 1.16
Q fixed | 0.292 | 1.16 | 0.798 | 1.02 | 1.22 | 0.856 | 0.976 | 0.922 | 0.86
R fixed | 0.324 | 1.64 | 2.82 | 1.21 | 1.4 | 0.649 | 0.921 | 1.02 | 0.934
V fixed | 0.295 | 0.656 | 0.413 | 0.695 | 0.483 | 0.687 | 0.705 | 0.586 | 0.718
W fixed | 0.213 | 0.769 | 0.485 | 0.973 | 0.758 | 0.935 | 0.883 | 1.05 | 0.852
Y fixed | 0.202 | 0.842 | 0.415 | 0.924 | 0.897 | 0.825 | 0.893 | 0.985 | 0.99
pThr fixed | 0.851 | 1.38 | 1.59 | 0.946 | 0.621 | 1.16 | 1.3 | 1.43 | 1.74
pTyr fixed | 0.777 | 0.913 | 1.36 | 1.08 | 0.885 | 1.28 | 1.48 | 1.42 | 1.66

CSNK1G2, construct: aa43-353 (from UniProt P78368)
relative phosphorylation
Settings | at +1 | at +2 | at +3 | at +4 | at -1 | at -2 | at -3 | at -4 | at -5
A fixed | 0.721 | 0.84 | 0.944 | 0.864 | 1.07 | 1.17 | 0.642 | 1.13 | 0.845
D fixed | 0.589 | 0.43 | 1.14 | 1.31 | 1.52 | 1.2 | 4.54 | 1.46 | 2.48
E fixed | 1 | 0.999 | 0.339 | 1.25 | 2.85 | 4.44 | 2.79 | 1.85 | 1.89
F fixed | 0.973 | 1.33 | 1.29 | 0.996 | 0.834 | 0.524 | 0.55 | 0.896 | 0.82
G fixed | 0.636 | 0.516 | 1.23 | 0.746 | 0.797 | 0.686 | 0.705 | 0.767 | 0.79
H fixed | 0.986 | 1.21 | 1.59 | 0.806 | 0.904 | 0.682 | 0.652 | 0.861 | 0.886
I fixed | 1.88 | 1.32 | 1.08 | 0.961 | 0.902 | 0.666 | 0.465 | 0.694 | 0.875
K fixed | 0.517 | 0.942 | 0.54 | 0.702 | 0.774 | 0.659 | 0.891 | 0.877 | 0.968
L fixed | 1.55 | 0.605 | 0.944 | 1 | 1.02 | 0.656 | 0.458 | 0.842 | 0.76
M fixed | 1.36 | 1.3 | 1.09 | 1.03 | 0.484 | 0.594 | 0.561 | 0.817 | 0.799
N fixed | 0.672 | 0.875 | 0.732 | 0.797 | 0.807 | 1.18 | 0.766 | 0.858 | 0.859
P fixed | 0.44 | 0.537 | 0.738 | 0.947 | 0.965 | 0.876 | 0.577 | 1.05 | 0.745
Q fixed | 0.592 | 0.618 | 0.61 | 0.936 | 1.03 | 1.04 | 0.707 | 1.03 | 1
R fixed | 0.813 | 0.996 | 0.687 | 0.684 | 1.11 | 0.695 | 0.895 | 1.02 | 0.961
V fixed | 1.94 | 1.46 | 1.29 | 1.17 | 0.766 | 0.813 | 0.44 | 0.733 | 0.686
W fixed | 0.852 | 1.34 | 1.27 | 1.35 | 0.589 | 0.5 | 0.652 | 1.15 | 0.821
Y fixed | 1.47 | 1.68 | 1.49 | 1.45 | 0.569 | 0.619 | 0.711 | 0.971 | 0.816
pThr fixed | 1.33 | 1.36 | 2.58 | 3.98 | 3.89 | 9.46 | 62.6 | 8.08 | 4.7
pTyr fixed | 2.52 | 5.33 | 19.2 | 6.91 | 2.93 | 6.96 | 8.28 | 6.71 | 6.32

NEK8, construct: aa1-322 (from UniProt Q86SG6)
relative phosphorylation
Settings | at +1 | at +2 | at +3 | at +4 | at -1 | at -2 | at -3 | at -4 | at -5
A fixed | 0.671 | 0.695 | 0.727 | 0.752 | 0.875 | 0.751 | 0.814 | 0.847 | 0.971
D fixed | 0.407 | 0.332 | 0.655 | 0.562 | 1.08 | 1.53 | 0.918 | 1.68 | 1.61
E fixed | 0.37 | 0.28 | 0.459 | 0.527 | 1.16 | 1.09 | 0.764 | 1.25 | 1.09
F fixed | 1.97 | 1.12 | 1.7 | 1.11 | 0.777 | 0.882 | 0.995 | 0.89 | 1.02
G fixed | 0.654 | 0.656 | 0.992 | 0.944 | 0.602 | 1.09 | 0.975 | 0.936 | 1.05
H fixed | 1 | 1.01 | 1.16 | 0.97 | 0.967 | 0.963 | 1.05 | 0.983 | 1.04
I fixed | 0.826 | 0.761 | 0.74 | 0.815 | 0.555 | 0.679 | 0.69 | 0.606 | 0.658
K fixed | 0.933 | 2.05 | 1.4 | 1.81 | 1.5 | 0.755 | 0.799 | 0.918 | 1.08
L fixed | 1.06 | 0.845 | 1.04 | 0.978 | 1.11 | 1.25 | 1.56 | 0.792 | 0.771
M fixed | 2.03 | 0.89 | 0.95 | 0.97 | 1.36 | 0.959 | 1.52 | 0.858 | 0.76
N fixed | 0.945 | 0.841 | 1.05 | 1.02 | 1.11 | 1 | 0.837 | 1.09 | 1.06
P fixed | 0.239 | 0.525 | 0.826 | 1.32 | 0.433 | 0.485 | 0.878 | 0.926 | 1.11
Q fixed | 1.33 | 0.836 | 0.861 | 1.12 | 1.34 | 0.75 | 0.924 | 0.839 | 0.935
R fixed | 1.34 | 3.13 | 1.54 | 1.54 | 1.72 | 1.59 | 1.84 | 0.966 | 0.956
V fixed | 0.7 | 0.798 | 0.628 | 0.66 | 0.63 | 0.625 | 0.465 | 0.597 | 0.712
W fixed | 1.29 | 0.948 | 1.26 | 1.03 | 0.775 | 1.33 | 1.05 | 2.01 | 1.3
Y fixed | 1.24 | 1.28 | 1.02 | 0.86 | 0.999 | 1.26 | 0.924 | 0.805 | 0.871
pThr fixed | 0.717 | 0.574 | 0.612 | 0.672 | 0.593 | 1.01 | 1.17 | 1.13 | 1.4
pTyr fixed | 0.64 | 0.439 | 0.819 | 0.583 | 1.42 | 1.66 | 1.3 | 1.05 | 1.38
